Experimental data: patent publication US20040161756A1, “Substrate linked directed evolution (slide)” (priority 2000, published 2004)

Legend:
loxP sites = assay: Recombination of pEVO-loxP^2 excision substrate in E. coli; type: cell-based; settings: expressed from the arabinose promoter, even at very low expression levels
From the text: (§1) Evolution vectors: The pEVO vector series is based on the plasmid pBAD-33 (Guzman et al., J Bacteriol 177, 4121-30 (1995)). pEVO-loxP^2, pEVO-3, pEVO-6 and pEVO-10 are identical except for the recognition target sites for the recombinase (see also FIG. 3). pEVO-loxP^2 contains two tandemly repeated loxP sites as they exist in the bacteriophage P1, spaced by 690 bp. pEVO-3, contains two recognition target sites which differ in 3 nucleotides per halfsite from a loxP site. The spacer in pEVO-3 is identical to the one found in loxP sites from bacteriophage P1. pEVO-6 recognition target sites (loxH) have the spacer sequence altered in all eight positions in addition to the three nucleotides changes present in pEVO-3. pEVO-10 contains two loxH sites as well as two loxP sites, which are intertwined. Recombinase expression levels can be titrated by the amount of L-arabinose added to the medium.
(§2) To test the method of the invention, Cre recombinase was first cloned into the vector pEVO-loxP^2, which contains two loxP sites, oriented as an excision substrate. […] As a first step, the three nucleotides different in the loxH halfsites were introduced (pEVO-3). […] Libraries of mutated recombinase were cloned into pEVO3 and screened at low recombinase expression levels.

pSVpaX (loxP sites) = assay: Recombination reporter assay in CHO cells, pSVpaX; type: cell-based, chinese hamster; settings: co-transfection, within 36 hours, from β-galactosidase activities
From the text: (§3) a) Plasmids expressing the depicted recombinases from the PGK promoter were co-transfected with the recombination reporter plasmids pSVpaX (loxP sites) or pSVpaH (loxH sites) into CHO cells. Illustrations of plasmids pSVpaX, pSVpaH, and pSVpaZ is presented. White triangles depict loxH sites, grey triangles loxP sites, and black triangles FRT sites. SV40═SV40 early promoter; pac=puromycin acetytransferase.
(§4) Cell culture: Chinese hamster ovary (CHO) cells were transfected with plasmid DNA using Lipofectamine (GibcoBRL). Crude cell extracts were prepared after 36 hours and Luciferase activity of cell extracts were determined with the Luciferase assay system from Promega. Relative β-galactosidase activities were measured with the Galacto-Light kit from Tropix. The Cre recombination reporter plasmid pSVpaX has been described earlier (Buchholz et al., Nucleic Acids Res 24, 4256-62 (1996)). pSVpaH is identical to pSVpaX except that the loxP sites were exchanged with loxH sites. […] Recombination efficiencies were calculated from measured β-galactosidase activities, corrected by transformation efficiencies assayed by Luciferase measurements.
(§5) The recombination properties of Fre1 and Fre3 were evaluated in mammalian cells, by co-transfecting chinese hamster ovary (CHO) cells with reporter and recombinase expression plasmids (FIG. 6a). […]

pSVpaH (loxH sites) = assay: Recombination reporter assay in CHO cells, pSVpaH; type: cell-based, chinese hamster; settings: co-transfection
From the text: as §3, §4, §5

loxH sites = assay: Recombination of loxH sites in E. coli (initial experiments and pEVO-6 vector, plasmid gel); type: cell-based
From the text: as §1

[1] = test system: recognition target sites which differ in 3 nucleotides per halfsite from a loxP site; assay: Recombination of pEVO-3 in E. coli; type: cell-based
From the text: as §1, §2

B1: Cre: site specific recombinase that recognises the 34 bp loxP sequence; wild type starting protein (protein, UniProt P06956 1-343, looked up)
Recombinase cre: MSNLLTVHQNLPALPVDATSDEVRKNLMDMFRDRQAFSEHTWKMLLSVCRSWAAWCKLNNRKWFPAEPEDVRDYLLYLQARGLAVKTIQQHLGQLNMLHRRSGLPRPSDSNAVSLVMRRIRKENVDAGERAKQALAFERTDFDQVRSLMENSDRCQDIRNLAFLGIAYNTLLRIAEIARIRVKDISRTDGGRMLIHIGRTKTLVSTAGVEKALSLGVTKLVERWISVSGVADDPNNYLFCRVRKNGVAAPSATSQLSTRALEGIFEATHRLIYGAKDDSGQRYLAWSGHSARVGAARDMARAGVSIPEIMQAGGWTNVNIVMNYIRNLDSETGAMVRLLEDGD
recombination of plasmid pEVO-loxP^2 (loxP sites): efficiently recombined
reporter pSVpaX recombined (pSVpaX (loxP sites)): approximately 75%
recombination of pSVpaH (pSVpaH (loxH sites)): little recombination
recombination of pEVO-6 (loxH sites) (loxH sites; even when induced with arabinose): no recombination
recombination of loxH sites (loxH sites; initial recombination experiments in E. coli): does not recombine this site at measurable frequency
recombination of pEVO-3 ([1]; higher expression levels): recombination was observed
recombination of pEVO-3 ([1]; low expression levels): did not recombine
